In patent US20220154204:

Molecular target: T1, GST-OST1/SnRK2.6, Q940H6
T1 chain: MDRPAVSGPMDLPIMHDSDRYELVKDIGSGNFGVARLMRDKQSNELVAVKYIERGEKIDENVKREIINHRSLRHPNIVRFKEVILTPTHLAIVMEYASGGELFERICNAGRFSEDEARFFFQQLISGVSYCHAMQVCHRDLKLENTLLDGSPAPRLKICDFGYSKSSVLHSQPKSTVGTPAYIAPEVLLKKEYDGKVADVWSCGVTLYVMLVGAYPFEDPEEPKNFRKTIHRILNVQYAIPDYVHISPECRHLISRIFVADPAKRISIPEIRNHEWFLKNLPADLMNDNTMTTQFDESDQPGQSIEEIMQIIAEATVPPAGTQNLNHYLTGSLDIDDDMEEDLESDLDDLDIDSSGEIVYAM

B1: MPK12 (protein)
chain: MSGESSSGSTEHCIKVVPTHGGRYVQYNVYGQLFEVSRKYVPPIRPIGRGACGIVCAAVNSVTGEKVAIKKIGNAFDNIIDAKRTLREIKLLRHMDHENVITIKDIVRPPQRDIFNDVYIVYELMDTDLQRILRSNQTLTSDQCRFLVYQLLRGLKYVHSANILHRDLRPSNVLLNSKNELKIGDFGLARTTSDTDFMTEYVVTRWYRAPELLLNCSEYTAAIDIWSVGCILGEIMTGQPLFPGKDYVHQLRLITELVGSPDNSSLGFLRSDNARRYVRQLPRYPKQQFAARFPKMPTTAIDLLERMLVFDPNRRISVDEALGHAYLSPHHDVAKEPVCSTPFSFDFEHPSCTEEHIKELIYKESVKFNPDH
- in vitro phosphorylation assay with 32P-ATP after dephosphorylation of OST1: did not phosphorylate OST1/SnRK2.6 after dephosphorylation
